The values below are quoted from earlier work in paper PMC3097287.

The target in one series is ANP (Rattus norvegicus) (UniProt P01161).
Series [1] addresses NPRA ECD (Rattus norvegicus) (UniProt P18910). In words: sedimentation equilibrium.
The target is the same in series [2]. In words: sedimentation equilibrium. The source holds these as a separate data set.

Like-named read-outs stand apart in the source and are kept apart here.

Sequence of UniProt P01161 (P01161 123-150): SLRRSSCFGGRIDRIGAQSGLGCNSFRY

By Kd is commonly meant the constant that tells how readily two partners part at equilibrium. As for NPRA ECD (from UniProt P18910), the equilibrium dissociation constant (Kd) was 1 nM with ANP (Rattus norvegicus), 500 nM in series [1] and 10 nM in series [2].
